Experimental data published in paper PMC11637481, “A third dose of inactivated vaccine augments the potency, breadth, and duration of anamnestic responses against SARS-CoV-2” (Protein & Cell, 2024).

B1: XGv026 (antibody, V domains shown)
VH: EVQLVESGGGVIQPGGSLRLSCAASEIIVSSNYMNWVRQAPGKGLEWVSVIYPGGSSFYADSVKGRFTISRDNSKNTLYLQMNSLRVEDTAVYYCARDSPHRPGTIWGQGTLVVVSS
VL: DIQMTQSPSSLSASVGDRVTITCRASQDINNYLNWYQQKPGKAPKLLIYDAFTLEAGVPSRFSGARFGTDFTFTISSLQPEDIATYYCHQCDNLPCTFGGGTKVEIK
B2: XGv030 (antibody, V domains shown)
VH: EVQLVESGGGLVQPGGSLRLSCAASGFSFSTYSLNWVRQAPGKGLEWVSYISSSSITIYYAHSVKGRFTISRDDAKNSLYLQVNNLRDEDTAVYYCARVLGFSDYVWGSYQRGLYGMDVWGQGTTVSVSS
VL: QSALTQPASVSGSPGQSIAISCTGTSSDVGGYDFVSWYQQHPGKAPKLLIYDVTNRPSGISNRFSGSKSGNTASLTISGLQTEDEADYYCSSFTSSNTLPFVFGTGTTVTVL
B3: XGv013 (antibody, V domains shown)
VH: EVQLVESGGGLVQPGGSLRLSCAASGITVSSNYMTWVRQAPGKGLEWVSVIYAGGSTFYADSVKGRFTISRDNSKNTLYLQMNSLRVEDTAVYYCARDLVDYGMDVWGQGTTVTVSS
VL: DIQLTQSPSFLSASVGDRVTITCRASQGIASYLAWYQQKPGKAPKLLIYAASTLQSGVPTRFSGSGSGTEFTLTIRSLQPEDSATYYCQHPSGHPPTFGGGTKVEI
B4: XGv038 (antibody, V domains shown)
VH: QVQLVESGGGVVQPGRSLRLSCAASGFTFNNYGIHWVRQAPGKGLEWVAVIWYDGTNKYYADSVKGRFTISRDNSKNTVYLQMNSLRAEDTAVYYCARDYEITMAAPDYWGQGTLVTVSS
VL: DVVMTQSPLSLPVTLEQPASISCRSSQSLVSSDGNTYLNWFQQRPGQSPRRLIYKVSNRDSGVPDRFSGSGSGTDFTLKINRVEAEDVGIYYCMQGSHWPPTFGGGTKVEIK
B5: XGv018 (antibody, V domains shown)
VH: QVQLVESGGGVVQPGRSLRLSCAASGFTFSTYGMHWVRQAPGKGLEWVAVILNDGSGKLYADSVKGRFTISRDNSKNTLYLQMSSLRAEDTAVYFCARDQGELVTYFDYWGQGTLVTVSS
VL: DIQMTQSPSSLSASVGDRVTITCRASQSISRYLNWYQHKPGKAPKLLIYTTSNLQSGVPSRFSGSGSGTDFTLTISSLHPEDFATYYCQQSYNTPSWTFGQGTKVEIK
B6: XGv042 (antibody, V domains shown)
VH: QITLKESGPTLVKPTQTLTLTCTFSGLSMTTSGVGVGWIRQPPGKALEWLALIYWDDDKRYSPFLKSRLTITKDTSKNQVVLTMTNMDPADTGTYFCAHHTIPSIFDHWGQGTLVTVSS
VL: QSALTQPASVSGSPGQSITISCTATSSDVGVYNYVSWYQQYPGKAPRLIIFEVSNRPSGVSSRFSGSKSGYTASLTISGLQTDDEADYYCSSYTTTSTVFGGGTKLTVL
B7: XGv016 (antibody, V domains shown)
VH: QVQLVQSGTEVRKPGASVTVSCKASGYTFTTYHMHWVRRAPGQGLEWMGIIDPGTGGASYPQKFRGRVTLTRDTSTNTVYMELSSLRFQDTAIYYCARAEGSSWLGWFDPWGQGTLVTVSS
VL: QSVLTQPPSASGTPGQRVSISCSGSSSNIGTNYVYWYQQLPGTAPKLLIYKNNQRPSGVPDRFSGSKSGTSASLAISGLRSEDEADYFCASWDNGLSGSGWVFGGGTKLTV

Target: T1, SARS-CoV-2 receptor-binding domain (RBD), wild type (SARS-CoV-2, wild type (GenBank MN908947), UniProt P0DTC2)
T1 construct: also called WT
Test: BLI
Details: both partners purified

Compared with B1, B2 is 5.7-fold higher in Kd: 0.23 nM for the first, 1.3 nM for the second.

Going from B3 to B4, the Kd rises from 0.26 nM to 0.43 nM (1.7-fold). The first binds more tightly here.

B5 and B6 are within 1.5-fold of each other in Kd: 0.21 nM for the first, 0.16 nM for the second.

With B7 the Kd was 0.16 nM.
